Results: US20040254364A1

Experiments:
[1] = target: Manduca sexta brush border membrane vesicles (BBMV); experiment: 125I-labelled toxin added to 10 µg of BBMV with 100-fold excess of unlabeled Cry1Ac
[2] = target: Manduca sexta brush border membrane vesicles (BBMV); experiment: 125I-labelled toxin added to 10 µg of BBMV, no competitor, 98,242 cpm added
[3] = target: Manduca sexta brush border membrane vesicles (BBMV); experiment: 125I-labelled toxin added to 10 µg of BBMV, no competitor
[4] = target: Manduca sexta brush border membrane vesicles (BBMV); experiment: 125I-labelled toxin on 10 µg of BBMV, competitor 100-fold excess of unlabeled Cry1Ac
[5] = target: Manduca sexta brush border membrane vesicles (BBMV); experiment: 125I-labelled toxin added to 10 µg of BBMV with 100-fold excess of unlabeled Cry1Ac, 98,242 cpm added
[6] = target: Manduca sexta brush border membrane vesicles (BBMV); experiment: micropanning on 100 µg of BBMV with an excess of free Cry1Ac as competitor, yield relative to BBMV without competitor
[7] = target: Manduca sexta brush border membrane vesicles (BBMV); experiment: micropanning on 100 µg of BBMV; control sample, set to 1.0 by definition
[8] = target: Manduca sexta brush border membrane vesicles (BBMV); experiment: 125I-labelled control phage added to 10 µg of BBMV with 100-fold excess of unlabeled Cry1Ac
[9] = target: Manduca sexta brush border membrane vesicles (BBMV); experiment: 125I-labelled control phage added to 10 µg of BBMV, no competitor
[10] = target: Manduca sexta brush border membrane vesicles (BBMV); experiment: 125I-labelled control phage added to 10 µg of BBMV, no competitor, 62,319 cpm added
[11] = target: Manduca sexta brush border membrane vesicles (BBMV); experiment: 125I-labelled control phage added to 10 µg of BBMV with 100-fold excess of unlabeled Cry1Ac, 62,319 cpm added
[12] = target: Bovine serum albumin (bovine) (UniProt P02769); experiment: micropanning in microtiter wells; control sample, set to 1.0 by definition
[13] = target: Manduca sexta brush border membrane vesicles (BBMV); experiment: 125I-labelled phage added to 10 µg of BBMV, no competitor, 105,252 cpm added
[14] = target: Manduca sexta brush border membrane vesicles (BBMV); experiment: 125I-labelled phage added to 10 µg of BBMV with 100-fold excess of unlabeled Cry1Ac, 105,252 cpm added
[15] = target: Manduca sexta brush border membrane vesicles (BBMV); experiment: 125I-labelled phage added to 10 µg of BBMV, no competitor
[16] = target: Manduca sexta brush border membrane vesicles (BBMV); experiment: 125I-labelled phage on 10 µg of BBMV, competitor 100-fold excess of unlabeled Cry1Ac
[17] = target: Manduca sexta brush border membrane vesicles (BBMV); experiment: 125I-labelled phage added to 10 µg of BBMV with 100-fold excess of unlabeled Cry1Ac

Chain of Bovine serum albumin (bovine) (P02769 25-607 limits assumed): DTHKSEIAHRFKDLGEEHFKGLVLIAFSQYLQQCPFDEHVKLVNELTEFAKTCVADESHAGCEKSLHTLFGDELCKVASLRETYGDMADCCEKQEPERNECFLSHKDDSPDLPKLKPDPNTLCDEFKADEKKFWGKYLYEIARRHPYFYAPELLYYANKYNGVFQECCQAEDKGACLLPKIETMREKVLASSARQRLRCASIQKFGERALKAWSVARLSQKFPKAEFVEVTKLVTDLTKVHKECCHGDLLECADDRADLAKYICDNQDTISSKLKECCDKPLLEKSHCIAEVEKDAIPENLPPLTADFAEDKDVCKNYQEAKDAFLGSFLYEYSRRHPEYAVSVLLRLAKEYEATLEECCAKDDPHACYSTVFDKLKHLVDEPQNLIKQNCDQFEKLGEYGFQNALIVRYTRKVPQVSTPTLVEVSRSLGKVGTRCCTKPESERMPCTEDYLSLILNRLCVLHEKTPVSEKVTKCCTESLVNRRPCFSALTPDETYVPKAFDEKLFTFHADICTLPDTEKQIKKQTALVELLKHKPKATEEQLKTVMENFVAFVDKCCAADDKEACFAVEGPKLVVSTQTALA

Substance	% cpm bound [1] [%]	mean cpm bound (n = 2) [2] [cpm]	% cpm bound [3] [%]	% competition [4] [%]	mean cpm bound (n = 2) [5] [cpm]	relative yield (relative to control sample) [6]	relative yield (relative to control sample) [7]	% cpm bound [8] [%]	% cpm bound [9] [%]	mean cpm bound (n = 2) [10] [cpm]	mean cpm bound (n = 2) [11] [cpm]	relative yield (relative to control sample) [12]	mean cpm bound (n = 2) [13] [cpm]	mean cpm bound (n = 2) [14] [cpm]	% cpm bound [15] [%]	% competition [16] [%]	% cpm bound [17] [%]
purified, trypsin-activated HD-73 Cry1Ac toxin (65 kDa) from Bacillus thuringiensis subsp. kurstaki (from UniProt P05068 29-623)	4.3	12700	12.9	66.5	4260												
WT-fUSE5 phage (fUSE5 vector phage without insert, grown in JM109) (from UniProt P03661 19-424)						0.24	1	7.6	6.1	3780	4740	1					
1Ac-fUSE5 phage (filamentous fd phage displaying the Cry1Ac-cpIII fusion protein) (from UniProt P05068 1-611; P03661 48-424)						1.7	1					1	12300	11200	11.7	8.5	10.7
